Experimental data as given in US20260217852A1 (ZONHON BIOPHARMA INSTITUTE, published 2026).

Assays:
[1] = biological target: T1, CD26 on cells (786-0, OS-RC-2, UT16, NCI-H226 tumor cells; PBMCs) (human, UniProt P27487 1-766); test: flow cytometry, PBMCs in a mixed system with 786-0 cells, antibody at 0.3 ug/mL
T1 construct: whole, on cells; The background says that CD26 commonly exists as a homodimer; also called CD26 target on tumor cells; CD26 on PBMCs

[2] = biological target: CD3 protein; test: BLI (ForteBio), biotinylated CD3 protein on SA biosensors, antibody at 500 nM
Experimental: CD3 protein was first biotinylated using EZ-Link NHS-PEG12-Biotin, and the biotinylated protein was immobilized on SA biosensors. The biosensors were then equilibrated in 1× Kinetics Buffer, followed by incubation with the humanized bispecific antibody solution to allow binding. The concentration of the humanized bispecific antibody solution was 500 nM. Afterward, the biosensors were placed in 1× Kinetics Buffer for dissociation. Data were analyzed using Fortebio Data Analysis 8.0 software to calculate the affinity constant values.

T1 sequence (P27487 whole entry): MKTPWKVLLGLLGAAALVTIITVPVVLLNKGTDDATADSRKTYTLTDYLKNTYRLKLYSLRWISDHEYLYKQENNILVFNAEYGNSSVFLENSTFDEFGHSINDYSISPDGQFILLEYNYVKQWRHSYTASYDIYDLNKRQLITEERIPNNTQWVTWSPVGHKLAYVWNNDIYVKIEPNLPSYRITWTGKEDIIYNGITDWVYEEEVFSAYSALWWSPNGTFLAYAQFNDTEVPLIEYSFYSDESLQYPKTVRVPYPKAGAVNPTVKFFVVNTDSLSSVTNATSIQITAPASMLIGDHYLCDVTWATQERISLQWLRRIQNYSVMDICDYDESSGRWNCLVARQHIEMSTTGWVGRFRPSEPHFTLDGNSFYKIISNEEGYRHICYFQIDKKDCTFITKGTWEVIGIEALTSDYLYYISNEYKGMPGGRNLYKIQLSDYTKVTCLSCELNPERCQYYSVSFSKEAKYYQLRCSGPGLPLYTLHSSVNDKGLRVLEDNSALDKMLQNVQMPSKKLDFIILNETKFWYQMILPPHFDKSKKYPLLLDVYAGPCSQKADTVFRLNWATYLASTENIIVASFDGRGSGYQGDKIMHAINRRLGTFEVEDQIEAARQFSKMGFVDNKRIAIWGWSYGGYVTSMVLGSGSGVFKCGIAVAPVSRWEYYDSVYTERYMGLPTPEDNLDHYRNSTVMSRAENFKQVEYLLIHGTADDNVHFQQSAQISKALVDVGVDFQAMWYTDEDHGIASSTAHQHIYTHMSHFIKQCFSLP

Row | binding result [1] | Kd [2] [nM] | koff [2] [s⁻¹] | kon [2] [M⁻¹ s⁻¹] | Binder
1 | binds | – | – | – | full-length humanized anti-CD26 antibody 21G428-429 (antibody, human IgG1, kappa, V domains shown, Derived from mouse antibody No. 62; About 150 kDa) VH: EVQLVQSGAELVKPGASVKLSCAASGFNIKDTYIYWVRQAPGQGLEWVGRIEPMNGNTKYDPKFQGRFTMTANTSKNTAYLQLSSLRSEDTAVYYCSRGGWLLLYVMDYWGQGTLVTVSS VL: DIVMTQSPSSLSVTPGERVSISCRSDKSLLHSNGNTYLYWFLQKPGQSPQVLIYRMSNLASGVPDRFSGSGSGTDFTLTISRVEAEDVGVYYCFQQLEYPYTFGQGTKLEIKR
2 | – | 1.61 | 0.000137 | 84800 | humanized CD26-CD3 BiTE bispecific antibody 19G300 (bispecific antibody, Single chain of about 55 kDa; also called humanized bispecific antibody 19G300) scFv: DIQMTQSPSSLSASPGDRVTISCRASQDIGNFLTWYQQKPGQAPKLLIYYRSRLHSGVPSRFSGSGSGTDYTLTISSLEPEDFATYYCQQDNTLPWTFGQGTKVEIKGGGGSGGGGSGGGGSEVQLVESGGGLVQPGGSLRLSCAASGFTFTNYYMSWVRQAPGKGLEWVAFIRDKANGYTTEYSASVKGRFTISRDNSKNTLYLQMNSLRAEDTAVYYCARVLRYLGYNFDYWGQGTLVTVSSGGGGSDVQLVQSGAEVKKPGASVKVSCKASGYTFTRYTMHWVRQAPGQGLEWIGYINPSRGYTNYADSVKGRFTITTDKSTSTAYMELSSLRSEDTATYYCARYYDDHYCLDYWGQGTTVTVSSGGGGSGGGGSGGGGSDIVLTQSPATLSLSPGERATLSCRASQSVSYMNWYQQKPGKAPKRWIYDTSKVASGVPARFSGSGSGTDYSLTINSLEAEDAATYYCQQWSSNPLTFGGGTKVEIK
